The source of these data is FireProtDB (doi:10.1006/jmbi.1995.0616).

B1: Subtilisin-chymotrypsin inhibitor-2A, P01053 (parent)
chain: MSSVEKKPEGVNTGAGDRHNLKTEWPELVGKSVEEAKKVILQDKPEAQIIVLPVGTIVTMEYRIDRVRLFVDKLDNIAQVPRVG

The variants in this data set derive from B1. As to conditions: Hordeum vulgare; pH 6.25; 25 °C; GdnHCl; Fluorescence; MES 50 mM; reversible: yes; structure 2CI2; whole UniProt chain shown.

Take MSSVEKKPEGVNTGAGDRHNLKTEWAELVGKSVEEGKKVILQDKPEAQIIVLPVGTIVTMEYRIDRVRLFVDKLDNIAQVPRVG: the “ddG of mutation (higher = less stable)” value turned out to be 1.3 kcal/mol, the denaturant m value came out at 2.39 kcal/mol/M, the “denaturant midpoint (higher = more stable)” value (“denaturant midpoint” below) was 2.64 M and the unfolding free energy came to 6.3 kcal/mol.
On the same counts, the results for MSSVEKKPEGVNTGAGDRHNLKTEWPELVGKSVEEAKKVILQDKPEAQIIVLPVGTIATMEYRIDRVRLFVDKLDNIAQAPRVG are 3.78 kcal/mol, 2.19 kcal/mol/M, 1.75 M and 3.82 kcal/mol.
As for MSSVEKKPEGVNTGAGDRHNLKTEWPELVGKSVAAAKKVILQDKPEAQIIVLPVGTIVTMEYRIDRVRLFVDKLDNIAQVPRVG, the “ddG of mutation (higher = less stable)” value was -0.02 kcal/mol, the denaturant m value stood at 2.11 kcal/mol/M, the “denaturant midpoint” value came out at 3.61 M and the unfolding free energy came out at 7.62 kcal/mol.
On the same counts, the results for MSSVEKKPEGVNTGAGDRHNLKTEWPELVGKSVEEAKKVILQDKAEAQIIVLPVGTIVTMEYRIDRVRLFVDKLDNIAQVPRVG are 1.22 kcal/mol, 2.07 kcal/mol/M, 3.09 M and 6.38 kcal/mol.
The like results for MSSVEKKPEGVNTGAGDRHNLKTEWPELVGKSVEEGKKVILQDKPEAQIIVLPVGTIVTMEYRIDRVRLFVDKLDNIAQVPRVG were, in that order, 1.41 kcal/mol, 1.8 kcal/mol/M, 3.44 M and 6.19 kcal/mol.
The like results for MSSVEKKPEGVNTGAGDRHNLKTEWPELVGKSVDEAKKVILQDKPEAQIIVLPVGTIVTMEYRIDRVRLFVDKLDNIAQVPRVG were, in that order, 0.77 kcal/mol, 1.83 kcal/mol/M, 3.73 M and 6.83 kcal/mol.
As for MSSVEKKPEGVNTGAGDRHNLKTEWPELVGKSVQEAKKVILQDKPEAQIIVLPVGTIVTMEYRIDRVRLFVDKLDNIAQVPRVG, the “ddG of mutation (higher = less stable)” value stood at 0.4 kcal/mol, the denaturant m value amounted to 1.87 kcal/mol/M, the “denaturant midpoint” value amounted to 3.85 M and the unfolding free energy was determined as 7.2 kcal/mol.
The like results for MSSVEKKPEGVNTGAGDRHNLKTEWPELVGKSVNEAKKVILQDKPEAQIIVLPVGTIVTMEYRIDRVRLFVDKLDNIAQVPRVG were, in that order, 0.28 kcal/mol, 2.01 kcal/mol/M, 3.64 M and 7.32 kcal/mol.
The like results for MSSVEKKPEGVNTGAGDRHNLKTEWPELVGKSVEEAKKVILQDKPEAQIIVLPVGTIATMEYRIDRVRLFVDKLDNIAQVPRVG were, in that order, 0.67 kcal/mol, 2.14 kcal/mol/M, 3.24 M and 6.93 kcal/mol.
MSSVEKKPEGVNTGAGDRHNLKTEWPELVGKSVEEAGKVILQDKPEAQIIVLPVGTIVTMEYRIDRVRLFVDKLDNIAQVPRVG: the “ddG of mutation (higher = less stable)” value came out at 2.01 kcal/mol, the denaturant m value is 1.99 kcal/mol/M, the “denaturant midpoint” value was found to be 2.8 M and the unfolding free energy was determined as 5.59 kcal/mol.
The like results for MSSVEKKPEGVNTGAGDRHNLKTEWPELVGKSVEEAAKVILQDKPEAQIIVLPVGTIVTMEYRIDRVRLFVDKLDNIAQVPRVG were, in that order, 1.13 kcal/mol, 1.73 kcal/mol/M, 3.75 M and 6.47 kcal/mol.
On the same counts, the results for MSSVEKKPEGVNTGAGDRHNLKTEWPELVGKGVAAAKKVILQDKPEAQIIVLPVGTIVTMEYRIDRVRLFVDKLDNIAQVPRVG are 0.81 kcal/mol, 2.15 kcal/mol/M, 3.16 M and 6.79 kcal/mol.
On the same counts, the results for MSSVEKKPEGVNTGAGDRHNLKTEWPELVGKSVEEAKKVILQDKPEAQIIVLPVGAIVTMEYRIDRVRLFVDKLDNIAQVPRVG are 1.42 kcal/mol, 1.5 kcal/mol/M, 4.12 M and 6.18 kcal/mol.
Regarding MSSVEKKPEGVNTGAGDRHNLKTEWPELVGKSVEEAKKVILQDKPEAQIIVLPVGVIVTMEYRIDRVRLFVDKLDNIAQVPRVG, the “ddG of mutation (higher = less stable)” value amounted to 1.57 kcal/mol, the denaturant m value came out at 1.67 kcal/mol/M, the “denaturant midpoint” value worked out at 3.61 M and the unfolding free energy came to 6.03 kcal/mol.
On to MSSVEKKPEGVNTGAGDRHNLKTEWPELVGKSVEEAKKVILQDKPEAQIIVLPVGSIVTMEYRIDRVRLFVDKLDNIAQVPRVG, for which the “ddG of mutation (higher = less stable)” value amounted to 0.98 kcal/mol, the denaturant m value turned out to be 1.66 kcal/mol/M, the “denaturant midpoint” value was determined as 3.99 M and the unfolding free energy was 6.62 kcal/mol.
MSSVEKKPEGVNTGAGDRHNLKTEWPELVGKSVEEAKKVILQAKPEAQIIVLPVGTIVTMEYRIDRVRLFVDKLDNIAQVPRVG: the “ddG of mutation (higher = less stable)” value stood at 1.05 kcal/mol, the denaturant m value came to 1.87 kcal/mol/M, the “denaturant midpoint” value amounted to 3.51 M and the unfolding free energy is 6.55 kcal/mol.
On to MSSVEKKPEGVNTGAGDRHNLKTEWPELVGKSVEEAKKVILQDKPEAQIIVAPVGTIVTMEYRIDRVRLAVDKLDNIAQVPRVG, for which the “ddG of mutation (higher = less stable)” value was 5.16 kcal/mol, the denaturant m value came out at 1.59 kcal/mol/M, the “denaturant midpoint” value came out at 1.53 M and the unfolding free energy is 2.44 kcal/mol.
The like results for MSSVEKKPEGVNTGAGDRHNLKTEWPELVGKSVEEAKKVILQDKPEAQIIVAPVGTIVTMEYRIDRVRLLVDKLDNIAQVPRVG were, in that order, 3.25 kcal/mol, 1.94 kcal/mol/M, 2.24 M and 4.35 kcal/mol.
The like results for MSSVEKKPEGVNTGAGDRHNLKTEWPELVGKSVEEAKKVILQDKPEAQIIVLPVGTIATMEYRIDRVRLLVDKLDNIAQVPRVG were, in that order, 2.2 kcal/mol, 2.02 kcal/mol/M, 2.67 M and 5.4 kcal/mol.
In the case of MSSVEKKPEGVNTGAGDRHNLKTEWPELVGKSVEEAKKVILQDKPEAQIIVVPVGTIATMEYRIDRVRLLVDKLDNIAQVPRVG, the “ddG of mutation (higher = less stable)” value is 2.84 kcal/mol, the denaturant m value was determined as 1.83 kcal/mol/M, the “denaturant midpoint” value worked out at 2.6 M and the unfolding free energy was 4.76 kcal/mol.
On the same counts, the results for MSSVEKKPEGVNTGAGDRHNLKTEWPELVGKSVEQAKKVILQDKPEAQIIVLPVGTIVTMEYRIDRVRLFVDKLDNIAQVPRVG are 0.68 kcal/mol, 1.84 kcal/mol/M, 3.76 M and 6.92 kcal/mol.
On the same counts, the results for MSSVEKKPEGVNTGAGDRHNLKTEWPELVGKSVENAKKVILQDKPEAQIIVLPVGTIVTMEYRIDRVRLFVDKLDNIAQVPRVG are 0.08 kcal/mol, 2.18 kcal/mol/M, 3.45 M and 7.52 kcal/mol.
With MSSVEKKPEGVNTGAGDRHNLKTEWPELVGKSVEDAKKVILQDKPEAQIIVLPVGTIVTMEYRIDRVRLFVDKLDNIAQVPRVG, the “ddG of mutation (higher = less stable)” value was -0.36 kcal/mol, the denaturant m value turned out to be 2.2 kcal/mol/M, the “denaturant midpoint” value came to 3.62 M and the unfolding free energy stood at 7.96 kcal/mol.
On the same counts, the results for MSSVEKKPEGVNTGAGDRHNLKTEWPELVGKSVEEAKKAILQDKPEAQIIVLPVGTIVTMEYRIDRVRLFVDKLDNIAQVPRVG are 0.06 kcal/mol, 2.01 kcal/mol/M, 3.75 M and 7.54 kcal/mol.
The like results for MSSVEKKPEGVNTGAGDRHNLKTEWPELVGKAVEEAKKVILQDKPEAQIIVLPVGTIVTMEYRIDRVRLFVDKLDNIAQVPRVG were, in that order, 1.02 kcal/mol, 1.86 kcal/mol/M, 3.54 M and 6.58 kcal/mol.
The like results for MSSVEKKPEGVNTGAGDRHNLKTEWPELVGKGVEEAKKVILQDKPEAQIIVLPVGTIVTMEYRIDRVRLFVDKLDNIAQVPRVG were, in that order, 0.06 kcal/mol, 2.1 kcal/mol/M, 3.59 M and 7.54 kcal/mol.
